Key:
HLA-A*01:01 [1] = experiment: IEDB peptide-MHC binding, purified MHC/competitive/radioactivity; filed as Kd, often an IC50 or EC50 that approximates it; ≥ and ≤ were set here for values at or beyond the usual limits of such assays
HLA-A*23:01 = experiment: as above
HLA-A*24:02 = experiment: as above
HLA-A*26:01 = experiment: as above
HLA-A*29:02 = experiment: as above
HLA-A*30:02 = experiment: as above
HLA-B*44:02 = experiment: as above
HLA-B*44:03 = experiment: as above
HLA-B*08:01 = experiment: as above
HLA-B*40:01 = experiment: as above
HLA-A*01:01 [2] = experiment: IEDB peptide-MHC binding, purified MHC/direct/fluorescence; filed as Kd, often an IC50 or EC50 that approximates it; ≥ and ≤ were set here for values at or beyond the usual limits of such assays; details: source organism: SARS-CoV1
HLA-A*11:01 = experiment: as above; details: source organism: SARS-CoV1
HLA-B*15:01 = experiment: as above; details: source organism: SARS-CoV1
HLA-B*58:01 = experiment: as above; details: source organism: SARS-CoV1
HLA-A*02:03 = experiment: IEDB peptide-MHC binding, purified MHC/competitive/radioactivity; filed as Kd, often an IC50 or EC50 that approximates it; ≥ and ≤ were set here for values at or beyond the usual limits of such assays; details: source organism: Dengue virus 4 Philippines/H241/1956
HLA-B*53:01 = experiment: as above; details: source organism: Dengue virus 3 Martinique/1243/1999
[3] = source organism: SARS coronavirus Tor2
[4] = source organism: Dengue virus 2 Jamaica/1409/1983
[5] = source organism: Dengue virus 2 16681-PDK53
[6] = source organism: Vaccinia virus WR
[7] = source organism: Dengue virus 4 Philippines/H241/1956
[8] = source organism: Dengue virus 1 Brazil/97-11/1997
[9] = source organism: Mammarenavirus guanaritoense
[10] = source organism: Mammarenavirus juninense
[11] = source organism: Mammarenavirus brazilense

Sequence: MFLARAIVF
- Kd (HLA-A*01:01 [1]; [3]): ≥ 78.1 µM
- Kd (HLA-A*23:01; [3]): 19.4 µM
- Kd (HLA-A*24:02; [3]): ≥ 77.6 µM
- Kd (HLA-A*26:01; [3]): ≥ 34.1 µM
- Kd (HLA-A*29:02; [3]): 8.47 µM
- Kd (HLA-A*30:02; [3]): 16.6 µM

Sequence: NEAIMAVGM
- Kd (HLA-B*44:02; [4]): 0.0845 µM
- Kd (HLA-B*44:03; [4]): 0.224 µM

Sequence: NKAWLVHRQW
- Kd (HLA-B*44:02; [5]): 1.16 µM
- Kd (HLA-B*44:03; [5]): 4.09 µM

Sequence: REAVEDSRFW
- Kd (HLA-B*44:02; [4]): 0.0787 µM
- Kd (HLA-B*44:03; [4]): 0.127 µM

Sequence: RLSFKELLVY
- Kd (HLA-A*01:01 [1]; [3]): 0.239 µM
- Kd (HLA-A*23:01; [3]): 14.7 µM
- Kd (HLA-A*24:02; [3]): 15.7 µM
- Kd (HLA-A*26:01; [3]): 10.1 µM
- Kd (HLA-A*29:02; [3]): 0.0862 µM
- Kd (HLA-A*30:02; [3]): 0.226 µM

Sequence: SAKTKISVE
- Kd (HLA-B*08:01; [6]): 0.238 µM

Sequence: SASKSASVY
- Kd (HLA-A*01:01 [1]; [3]): ≥ 24.7 µM
- Kd (HLA-A*23:01; [3]): ≥ 77.8 µM
- Kd (HLA-A*24:02; [3]): ≥ 77.6 µM
- Kd (HLA-A*26:01; [3]): ≥ 20.8 µM
- Kd (HLA-A*29:02; [3]): 4.99 µM
- Kd (HLA-A*30:02; [3]): 0.385 µM

Sequence: SENEVKLTIM
- Kd (HLA-B*40:01; [4]): 0.974 µM
- Kd (HLA-B*44:02; [4]): 0.0237 µM
- Kd (HLA-B*44:03; [4]): 0.377 µM

Sequence: SEVCDHRLM
- Kd (HLA-B*40:01; [7]): 0.303 µM
- Kd (HLA-B*44:02; [7]): 0.026 µM
- Kd (HLA-B*44:03; [7]): 0.0761 µM

Sequence: SKRMRVDII
- Kd (HLA-B*08:01; [6]): 8.23 µM

Sequence: SLEFIRRSL
- Kd (HLA-B*08:01; [6]): 1.23 µM

Sequence: SMAMRCVGI
- Kd (HLA-B*08:01; [8]): 0.00595 µM

Sequence: SMKSVQNNTV
- Kd (HLA-A*01:01 [1]; [9]): ≥ 70.4 µM
- Kd (HLA-A*23:01; [9]): ≥ 70 µM
- Kd (HLA-A*24:02; [9]): ≥ 70.3 µM
- Kd (HLA-A*26:01; [9]): ≥ 69.7 µM
- Kd (HLA-A*29:02; [9]): ≥ 53.1 µM
- Kd (HLA-A*30:02; [9]): 2.98 µM

Sequence: SQILLMRTTW
- Kd (HLA-B*44:02; [8]): 0.359 µM
- Kd (HLA-B*44:03; [8]): 0.327 µM

Sequence: SRSTSLSVSL
- Kd (HLA-B*08:01; [4]): 0.558 µM

Sequence: SSLPSYAAY
- Kd (HLA-A*01:01 [2]): 1.62 µM
- Kd (HLA-A*11:01): 0.39 µM
- Kd (HLA-B*15:01): 0.0526 µM
- Kd (HLA-B*58:01): 0.287 µM
- Kd (HLA-A*23:01; [3]): ≥ 77.8 µM
- Kd (HLA-A*24:02; [3]): ≥ 77.6 µM
- Kd (HLA-A*26:01; [3]): 5.04 µM
- Kd (HLA-A*29:02; [3]): 0.00149 µM
- Kd (HLA-A*30:02; [3]): 0.00027 µM

Sequence: TEETFKLSY
- Kd (HLA-A*01:01 [1]; [3]): 7.91 µM
- Kd (HLA-A*23:01; [3]): ≥ 62.8 µM
- Kd (HLA-A*24:02; [3]): ≥ 30.2 µM
- Kd (HLA-A*26:01; [3]): 15.3 µM
- Kd (HLA-A*29:02; [3]): 0.141 µM
- Kd (HLA-A*30:02; [3]): 3.6 µM

Sequence: VDSSQGSEY
- Kd (HLA-A*01:01 [1]; [3]): 0.892 µM
- Kd (HLA-A*23:01; [3]): ≥ 77.8 µM
- Kd (HLA-A*24:02; [3]): ≥ 77.6 µM
- Kd (HLA-A*26:01; [3]): ≥ 24.4 µM
- Kd (HLA-A*29:02; [3]): 1.05 µM
- Kd (HLA-A*30:02; [3]): 1.98 µM

Sequence: VGEEFFHQY
- Kd (HLA-A*01:01 [1]; [10]): 3.34 µM
- Kd (HLA-A*23:01; [10]): 0.251 µM
- Kd (HLA-A*24:02; [10]): 1.62 µM
- Kd (HLA-A*26:01; [10]): ≥ 77.9 µM
- Kd (HLA-A*29:02; [10]): 2.38 µM
- Kd (HLA-A*30:02; [10]): 0.00674 µM

Sequence: VGRQEKGKSL
- Kd (HLA-B*08:01; [4]): 3.15 µM

Sequence: VIEGPTTCGY
- Kd (HLA-A*01:01 [1]; [3]): 0.109 µM
- Kd (HLA-A*23:01; [3]): ≥ 38.1 µM
- Kd (HLA-A*24:02; [3]): 17 µM
- Kd (HLA-A*26:01; [3]): 0.907 µM
- Kd (HLA-A*29:02; [3]): 0.152 µM
- Kd (HLA-A*30:02; [3]): 0.0262 µM

Sequence: VNKFKFGAA
- Kd (HLA-B*08:01; [6]): 0.158 µM

Sequence: VYRGTTTYKL
- Kd (HLA-A*01:01 [1]; [3]): 3.91 µM
- Kd (HLA-A*23:01; [3]): 0.101 µM
- Kd (HLA-A*24:02; [3]): 0.136 µM
- Kd (HLA-A*26:01; [3]): 1 µM
- Kd (HLA-A*29:02; [3]): 0.216 µM
- Kd (HLA-A*30:02; [3]): 6.88 µM

Sequence: WIMKIGIGVL
- Kd (HLA-B*08:01; source organism: Dengue virus 3 Singapore/8120/1995): 0.287 µM

Sequence: WLSYKVASA
- Kd (HLA-A*02:03): 0.0123 µM
- Kd (HLA-B*08:01; [7]): 0.00742 µM

Sequence: YCNYTKFWY
- Kd (HLA-A*01:01 [1]; [10]): 18.5 µM
- Kd (HLA-A*23:01; [10]): ≥ 22.2 µM
- Kd (HLA-A*24:02; [10]): ≥ 77.5 µM
- Kd (HLA-A*26:01; [10]): ≥ 77.9 µM
- Kd (HLA-A*29:02; [10]): 2 µM
- Kd (HLA-A*30:02; [10]): 0.674 µM

Sequence: YFMKFRRVF
- Kd (HLA-A*01:01 [1]; [3]): ≥ 78.1 µM
- Kd (HLA-A*23:01; [3]): ≥ 26.9 µM
- Kd (HLA-A*24:02; [3]): ≥ 77.6 µM
- Kd (HLA-A*26:01; [3]): ≥ 49.3 µM
- Kd (HLA-A*29:02; [3]): 12.7 µM
- Kd (HLA-A*30:02; [3]): ≥ 22.1 µM

Sequence: YQPDTGNYIL
- Kd (HLA-A*23:01; [11]): 1.72 µM
- Kd (HLA-A*24:02; [11]): 6 µM
- Kd (HLA-A*29:02; [11]): 5.52 µM

Sequence: YSIPATLLVW
- Kd (HLA-A*23:01; source organism: Dengue virus 3 Martinique/1243/1999): 0.0704 µM
- Kd (HLA-B*53:01): 0.0597 µM
